Patent publication US20060148057A1, “Thioredoxin mutants and uses thereof” (priority 2002, published 2006)

Tests used:
BAEC [1] = experiment: GFP co-transfection killing assay, ASK1-induced EC death; type: cell-based, Bovine; conditions: for inhibitory effect on ASK1-induced apoptosis under TNF treatment: TNF 10 ng/ml
Description: Trx inhibits ASK1-induced JNK activation and caspase 3 activity. BAEC were co-transfected with ASK1 and Trx constructs in 1:1 ratio as indicated: control vector alone (Ctrl), ASK1 with VC, Trx-WT, Trx-CS, Trx-C32S or Trx-C35S. 24 h post-transfection, cell lysates were used to examine JNK and caspase 3 activity. […] JNK activity was measured by an in vitro kinase assay GST-c-Jun as a substrate. Trx expression was determined by Western blot anti-Flag. […] Caspase 3 activity was measured by Sigma's Caspase 3 Fluorometric Assay Kit in the absence or presence of caspase 3 inhibitor Ac-DEVD-CHO. Assay was performed as duplicates. Caspase 3 activities were normalized with the Ctrl group (as zero). Data are presented from mean of two independent experiments. […] 6-well BAEC were co-transfected with a GFP expression construct and ASK1/Trx constructs as indicated (1 μg GFP, 1 μg ASK1, 1 μg Trx, total DNA was kept to 3 μg by adding VC): control vector alone (Ctrl), ASK1 with VC, Trx-WT, Trx-CS, Trx-C32S or Trx-C35S. Cells were cultured in the presence or absence of TNF (10 ng/ml). 48 h after transfection, GFP-positive cells were counted as survival cells. The survival rate is shown (Ctrl group as 100%). Data are presented from mean of four independent experiments. […] BAEC were transfetced as in FIG. 6C. 6-well BAEC were transfetced with GFP (1 μg) and Trx -expressing construct (1 μg each) as indicated. 24 h after transfection, cells were either left untreated or treated with TNF (10 ng/ml) plus CHX (10 μg/ml) for 24 h. GFP-positive cells were counted as survival cells. […] Data are presented from mean of four independent experiments.
(§1) Quantitation of cell killing: Cell killing assay was performed as described previously with a modification (Slowik M R et al. Evidence that tumor necrosis factor triggers apoptosis in human endothelial cells by interleukin-1-converting enzyme-like protease- dependent and -independent pathways. Lab Invest. 77:257-67 (1997)). EC were transfected with a combination of GFP reporter plasmid and the control vector or experimental expression plasmids for ASK1 and Trx at 1:1 ratio as indicated. GFP-positive cells were visualized under a fluorescence microscope and counted as number of survival cells.
ASK1-induced EC death was measured by a GFP co-transfection killing assay as previously described with minor modifications (Slowik M R Evidence that tumor necrosis factor triggers apoptosis in human endothelial cells by interleukin-1-converting enzyme-like protease- dependent and -independent pathways. Lab Invest. 77:257-67 (1997)). Overexpression of ASK1 in EC (BAEC or HUVEC) induced 60% cell death at 48 h post-transfection, i.e., 40% of GFP-positive (survival) EC compared to the control cells (Ctrl as 100% survival, FIG. 6C).

BAEC [2] = experiment: GFP killing assay, TNF+CHX-induced EC death; type: cell-based, Bovine; conditions: TNF 10 ng/ml plus CHX 10 μg/ml for 24 h; vector control 25% survival
Description: Trx inhibits ASK1-induced JNK activation and caspase 3 activity. BAEC were co-transfected with ASK1 and Trx constructs in 1:1 ratio as indicated: control vector alone (Ctrl), ASK1 with VC, Trx-WT, Trx-CS, Trx-C32S or Trx-C35S. 24 h post-transfection, cell lysates were used to examine JNK and caspase 3 activity. […] JNK activity was measured by an in vitro kinase assay GST-c-Jun as a substrate. Trx expression was determined by Western blot anti-Flag. […] Caspase 3 activity was measured by Sigma's Caspase 3 Fluorometric Assay Kit in the absence or presence of caspase 3 inhibitor Ac-DEVD-CHO. Assay was performed as duplicates. Caspase 3 activities were normalized with the Ctrl group (as zero). Data are presented from mean of two independent experiments. […] 48 h after transfection, GFP-positive cells were counted as survival cells. […] GFP-positive cells were counted as survival cells. […]
as §1, with “EC were transfected with a combination of GFP reporter plasmid and the control vector or experimental expression plasmids for ASK1 and Trx at 1:1 ratio as indicated.” left out, “cells. […]” for “cells.”

Molecule | ASK1-ΔN-induced apoptosis (BAEC [1]) | inhibitory effect on ASK1-induced apoptosis under TNF treatment (BAEC [1]) | survival after TNF+CHX (GFP-positive cells, Ctrl as 100%) (BAEC [2])
thioredoxin (protein, Flag tag or GST fusion, Flag-tagged or GST fusion) MVKQIESKTAFQEALDAAGDKLVVVDFSATWCGPCKMIKPFFHSLSEKYSNVIFLEVDVDDCQDVASECEVKCMPTFQFFKKGQKVGEFSGANKEKLEATINELV | did not inhibit | diminished the inhibitory effect | 
Trx-C32S: C32S single mutant of Trx at the catalytic site, SEQ ID NO:2 (protein) MVKQIESKTAFQEALDAAGDKLVVVDFSATWSGPCKMIKPFFHSLSEKYSNVIFLEVDVDDCQDVASECEVKCMPTFQFFKKGQKVGEFSGANKEKLEATINELV |  | retained their inhibitory effects | 
Trx-C35S: C35S single mutant of Trx at the catalytic site, SEQ ID NO:3 (protein) MVKQIESKTAFQEALDAAGDKLVVVDFSATWCGPSKMIKPFFHSLSEKYSNVIFLEVDVDDCQDVASECEVKCMPTFQFFKKGQKVGEFSGANKEKLEATINELV |  | retained their inhibitory effects | 100±12%
